Two molecules from patent publication US8946384 can be followed below.

In assay [1] the target is T1, recombinant Stx2B (B subunit of type-2 Shiga toxin) (E. coli EHEC O157: H7), P09386.
T1 chain: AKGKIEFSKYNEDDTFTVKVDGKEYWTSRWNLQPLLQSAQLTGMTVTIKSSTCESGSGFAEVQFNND

Assay [2] has as its target T2, recombinant type-2 Shiga toxin (Stx2) holotoxin (E. coli EHEC O157: H7), P09385.
T2 chain 1: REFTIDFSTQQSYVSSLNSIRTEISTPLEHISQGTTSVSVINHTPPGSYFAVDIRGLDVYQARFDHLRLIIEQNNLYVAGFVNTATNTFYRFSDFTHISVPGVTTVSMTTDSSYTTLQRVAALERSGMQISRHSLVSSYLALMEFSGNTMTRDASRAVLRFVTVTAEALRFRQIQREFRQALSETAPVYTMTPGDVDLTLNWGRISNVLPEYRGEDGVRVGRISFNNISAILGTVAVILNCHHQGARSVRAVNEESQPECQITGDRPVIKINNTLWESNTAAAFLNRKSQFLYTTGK
T2 chain 2: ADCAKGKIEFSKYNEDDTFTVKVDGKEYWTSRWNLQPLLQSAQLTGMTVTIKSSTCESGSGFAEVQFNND

For orientation: Kd means the constant that tells how readily two partners part at equilibrium.

TFNMWLPTFNQW (modifications not checked) [polypeptide TF1]: in assay [1], the percent of HeLa cells showing fluorescence came to 52.8%; the percent of binding between FITC-Stx2B and HeLa cells blocked came to 45.7%. Besides, the Kd in assay [2] amounted to 1.25 µM.
With WAPWYSFTSYHL (modifications not checked) [polypeptide WA8], in assay [1], the blocking rate of binding between FITC-Stx2B and HeLa cells amounted to 24.8%. For the same molecule, the Kd in assay [2] is 24.8 µM.
